Assay results as given in article PMC9352680, “A comprehensive thermodynamic model for RNA binding by the Saccharomyces cerevisiae Pumilio protein PUF4”.

T1: PUF4 RNA-binding domain (Saccharomyces cerevisiae, UniProt P25339 537-888)
T1 sequence: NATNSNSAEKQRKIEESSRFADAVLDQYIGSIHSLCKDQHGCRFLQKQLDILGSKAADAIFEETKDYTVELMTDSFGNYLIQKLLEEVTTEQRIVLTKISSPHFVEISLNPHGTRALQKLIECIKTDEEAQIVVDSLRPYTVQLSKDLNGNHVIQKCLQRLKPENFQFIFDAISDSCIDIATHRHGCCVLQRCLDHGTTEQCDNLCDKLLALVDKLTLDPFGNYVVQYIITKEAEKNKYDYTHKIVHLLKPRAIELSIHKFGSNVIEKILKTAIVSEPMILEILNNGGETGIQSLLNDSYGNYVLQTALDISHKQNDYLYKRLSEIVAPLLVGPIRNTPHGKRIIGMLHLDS


Target: T1, PUF4 RNA-binding domain
Assay: Mg; RNA-MaP; 20 mM Na-HEPES pH 7.4, 30 mM KOAc, 0.75 mM MgCl2, 0.1% Tween-20, 5% glycerol, 0.1 mg/mL BSA, 2 mM DTT; 25 C; 0.0125-409.6 nM protein
Details: tags: N-His6-TEV cleaved; C-SNAP kept, Cy3B-labelled; label: tethered on chip by stalled RNA polymerase

| Binder | Kd |
| --- | --- |
| UCUCUUCGACACUAUUACCUCUCUU (ssRNA) [Id_ii_S1_P4E.4_K4.3_C4.2_[T-1G]_H4.3_A4.1_F4.1_T4.2_[G10C]_[T11C]] | > 2300 nM |
| UCUCUUAAACACUAUUAUUUCUCUU (ssRNA) [Id_ii_S1_P4E.4_K4.3_C4.2_[C-2A]_[T-1A]_H4.3_A4.1_F4.1_T4.2_[G10T]] | > 2300 nM |
| UCUCUUUGUAAUUUAUCUCUU (ssRNA) [Ic_S1_P4E.1_K4.1_C4.1_H4.1_A4.1_[T5A]_[A6T]_F4.1_T4.1] | 3.77 nM |
| UCUCUUAUACACUAUUACGUCUCUU (ssRNA) [Id_ii_S1_P4E.4_K4.3_C4.2_[C-2A]_H4.3_A4.1_F4.1_T4.2_[G10C]_[T11G]] | 32.1 nM |
| UCUCUUGCUGUAUUAUUAUCUCUCUU (ssRNA) [Id_ii_S1_P5E.2_K5.1_C5.2_[C-2G]_[T-1C]_H5.1_A5.1_F5.1_T5.2_[A12C]] | 11.7 nM |
| UCUCUUCGACACUAUUACAUCUCUU (ssRNA) [Id_ii_S1_P4E.4_K4.3_C4.2_[T-1G]_H4.3_A4.1_F4.1_T4.2_[G10C]_[T11A]] | > 2300 nM |
| UCUCUUCUACACUAUUAUUUCUCUU (ssRNA) [Id_ii_S1_P4E.4_K4.3_C4.2_H4.3_A4.1_F4.1_T4.2_[G10T]] | > 2300 nM |
| UCUCUUCCACACUAUUAGCUCUCUU (ssRNA) [Id_ii_S1_P4E.4_K4.3_C4.2_[T-1C]_H4.3_A4.1_F4.1_T4.2_[T11C]] | > 2300 nM |
| UCUCUUCCACACUAUUAACUCUCUU (ssRNA) [Id_ii_S1_P4E.4_K4.3_C4.2_[T-1C]_H4.3_A4.1_F4.1_T4.2_[G10A]_[T11C]] | > 2300 nM |
| UCUCUUAUACACUAUUAAUUCUCUU (ssRNA) [Id_ii_S1_P4E.4_K4.3_C4.2_[C-2A]_H4.3_A4.1_F4.1_T4.2_[G10A]] | 35.2 nM |
| UCUCUUCUACACUAUUAUAUCUCUU (ssRNA) [Id_ii_S1_P4E.4_K4.3_C4.2_H4.3_A4.1_F4.1_T4.2_[G10T]_[T11A]] | 965 nM |
| UCUCUUAUACACUAUUAAAUCUCUU (ssRNA) [Id_ii_S1_P4E.4_K4.3_C4.2_[C-2A]_H4.3_A4.1_F4.1_T4.2_[G10A]_[T11A]] | 24.2 nM |
| UCUCUUAAACACUAUUAUCUCUCUU (ssRNA) [Id_ii_S1_P4E.4_K4.3_C4.2_[C-2A]_[T-1A]_H4.3_A4.1_F4.1_T4.2_[G10T]_[T11C]] | > 2300 nM |
| UCUCUUACACACUAUUACCUCUCUU (ssRNA) [Id_ii_S1_P4E.4_K4.3_C4.2_[C-2A]_[T-1C]_H4.3_A4.1_F4.1_T4.2_[G10C]_[T11C]] | > 2300 nM |
| UCUCUUAUACACUAUUAUCUCUCUU (ssRNA) [Id_ii_S1_P4E.4_K4.3_C4.2_[C-2A]_H4.3_A4.1_F4.1_T4.2_[G10T]_[T11C]] | 21.8 nM |
| UCUCUUAUACACUAUUAACUCUCUU (ssRNA) [Id_ii_S1_P4E.4_K4.3_C4.2_[C-2A]_H4.3_A4.1_F4.1_T4.2_[G10A]_[T11C]] | 37.5 nM |

| Binder | Kd |
| --- | --- |
| UCUCUUCCACACUAUUAAAUCUCUU (ssRNA) [Id_ii_S1_P4E.4_K4.3_C4.2_[T-1C]_H4.3_A4.1_F4.1_T4.2_[G10A]_[T11A]] | > 2300 nM |
| UCUCUUCCACACUAUUAUAUCUCUU (ssRNA) [Id_ii_S1_P4E.4_K4.3_C4.2_[T-1C]_H4.3_A4.1_F4.1_T4.2_[G10T]_[T11A]] | > 2300 nM |
| UCUCUUAGACACUAUUAACUCUCUU (ssRNA) [Id_ii_S1_P4E.4_K4.3_C4.2_[C-2A]_[T-1G]_H4.3_A4.1_F4.1_T4.2_[G10A]_[T11C]] | > 2300 nM |
| UCUCUUAUACACUAUUAUUUCUCUU (ssRNA) [Id_ii_S1_P4E.4_K4.3_C4.2_[C-2A]_H4.3_A4.1_F4.1_T4.2_[G10T]] | 35.2 nM |
| UCUCUUAAACACUAUUAGCUCUCUU (ssRNA) [Id_ii_S1_P4E.4_K4.3_C4.2_[C-2A]_[T-1A]_H4.3_A4.1_F4.1_T4.2_[T11C]] | > 2300 nM |
| UCUCUUAUACACUAUUAGUUCUCUU (ssRNA) [Id_ii_S1_P4E.4_K4.3_C4.2_[C-2A]_H4.3_A4.1_F4.1_T4.2] | 42.8 nM |
| UCUCUUACACACUAUUACUUCUCUU (ssRNA) [Id_ii_S1_P4E.4_K4.3_C4.2_[C-2A]_[T-1C]_H4.3_A4.1_F4.1_T4.2_[G10C]] | > 2300 nM |
| UCUCUUAUACACUAUUACUUCUCUU (ssRNA) [Id_ii_S1_P4E.4_K4.3_C4.2_[C-2A]_H4.3_A4.1_F4.1_T4.2_[G10C]] | 31.1 nM |
| UCUCUUCCACACUAUUACCUCUCUU (ssRNA) [Id_ii_S1_P4E.4_K4.3_C4.2_[T-1C]_H4.3_A4.1_F4.1_T4.2_[G10C]_[T11C]] | > 2300 nM |
| UCUCUUAGACACUAUUAAUUCUCUU (ssRNA) [Id_ii_S1_P4E.4_K4.3_C4.2_[C-2A]_[T-1G]_H4.3_A4.1_F4.1_T4.2_[G10A]] | > 2300 nM |
| UCUCUUGCUGUAUUAUUAACUCUCUU (ssRNA) [Id_ii_S1_P5E.2_K5.1_C5.2_[C-2G]_[T-1C]_H5.1_A5.1_F5.1_T5.2_[T11A]_[A12C]] | 15.2 nM |
| UCUCUUCUACACUAUUAUCUCUCUU (ssRNA) [Id_ii_S1_P4E.4_K4.3_C4.2_H4.3_A4.1_F4.1_T4.2_[G10T]_[T11C]] | 1700 nM |
| UCUCUUAGACACUAUUACAUCUCUU (ssRNA) [Id_ii_S1_P4E.4_K4.3_C4.2_[C-2A]_[T-1G]_H4.3_A4.1_F4.1_T4.2_[G10C]_[T11A]] | > 2300 nM |
| UCUCUUAUACACUAUUACAUCUCUU (ssRNA) [Id_ii_S1_P4E.4_K4.3_C4.2_[C-2A]_H4.3_A4.1_F4.1_T4.2_[G10C]_[T11A]] | 29.6 nM |
| UCUCUUAUACACUAUUACCUCUCUU (ssRNA) [Id_ii_S1_P4E.4_K4.3_C4.2_[C-2A]_H4.3_A4.1_F4.1_T4.2_[G10C]_[T11C]] | 26.4 nM |
